Measurements as given in patent publication US20090317825.

Molecular target: human GST-E1 (Boston Biochem) (UniProt P22314)
Sequence (P22314 whole entry): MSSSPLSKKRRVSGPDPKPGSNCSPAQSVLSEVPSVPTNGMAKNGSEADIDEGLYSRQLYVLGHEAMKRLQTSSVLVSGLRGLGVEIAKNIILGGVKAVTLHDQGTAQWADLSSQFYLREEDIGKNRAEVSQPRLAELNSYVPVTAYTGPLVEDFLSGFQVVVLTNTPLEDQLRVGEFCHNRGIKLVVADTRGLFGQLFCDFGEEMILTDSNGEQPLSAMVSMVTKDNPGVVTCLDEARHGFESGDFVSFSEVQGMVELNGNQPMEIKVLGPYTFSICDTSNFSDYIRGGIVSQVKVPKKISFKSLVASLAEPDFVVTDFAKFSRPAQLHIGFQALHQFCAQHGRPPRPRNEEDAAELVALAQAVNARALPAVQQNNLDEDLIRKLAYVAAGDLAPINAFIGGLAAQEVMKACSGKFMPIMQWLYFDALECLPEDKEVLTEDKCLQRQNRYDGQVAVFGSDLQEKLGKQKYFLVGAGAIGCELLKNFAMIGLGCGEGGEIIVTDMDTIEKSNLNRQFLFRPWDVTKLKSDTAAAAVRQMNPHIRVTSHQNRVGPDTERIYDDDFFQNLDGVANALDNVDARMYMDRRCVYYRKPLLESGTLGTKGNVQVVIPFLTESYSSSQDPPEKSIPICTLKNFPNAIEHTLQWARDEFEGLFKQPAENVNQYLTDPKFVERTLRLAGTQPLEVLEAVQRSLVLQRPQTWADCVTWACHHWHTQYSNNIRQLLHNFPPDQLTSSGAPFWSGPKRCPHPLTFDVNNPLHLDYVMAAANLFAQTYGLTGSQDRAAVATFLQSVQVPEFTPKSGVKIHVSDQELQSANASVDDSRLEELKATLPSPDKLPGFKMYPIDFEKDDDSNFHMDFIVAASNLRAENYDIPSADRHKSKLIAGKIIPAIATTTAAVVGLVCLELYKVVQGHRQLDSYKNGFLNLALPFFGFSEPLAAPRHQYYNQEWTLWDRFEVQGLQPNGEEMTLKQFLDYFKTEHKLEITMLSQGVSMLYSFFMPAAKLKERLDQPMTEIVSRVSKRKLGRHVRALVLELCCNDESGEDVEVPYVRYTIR

## His6-Parkin (full-length human Parkin fused to an N-terminal histidine tag, from E. coli, refolded)
  ubiquitination of Parkin in the absence of UbCH7 (biotin-ubiquitin Western blot, NeutrAvidin-HRP): some reaction product was seen in the absence of UbCH7 when Parkin was incubated with E1 and ubiquitin for 90 minutes
